Tested on: MS2 coat protein
Test: apparent KD of MS2 coat protein; designed switch direction (-1 OFF switch, 1 ON switch): -1; higher = weaker reporter binding
Method in brief: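 An oligonucleotide input, 200 uM small-molecule ligand, or no input was present during titration of SNAP-549-labelled MS2 coat protein, which was doubled from 0.7 or 1.5 nM to 3 µM. Designed RNA switches had been transcribed on Illumina chips by stalled E. coli RNA polymerase. Apparent KD per design is the median over clusters of curves fitted to normalised cluster fluorescence.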

[1] = input ligand: microRNA oligo, concentration not stated
[2] = Eterna round: R95, input ligand: FMN 200 uM
[3] = Eterna round: R95, input ligand: microRNA oligo, concentration not stated
[4] = Eterna round: R95, input ligand: none

Sequence	apparent KD of MS2 coat protein (input ligand: FMN 200 uM)	apparent KD of MS2 coat protein [1]	apparent KD of MS2 coat protein (input ligand: none)	apparent KD of MS2 coat protein [2]	apparent KD of MS2 coat protein [3]	apparent KD of MS2 coat protein [4]
AUAAUUAAUCGAGGAUAUCAGCACGAUUAGUGCUGAGAAGGCGACAUGAGGAUCACCCAUGUGAUCAAUUAAUAUUAAUAUUAU [ENG1/11-C1] (Eterna round: R96, puzzle: Exclusion NG 1)	1630 nM	626 nM	808 nM			
CGAGGUAGAGGAUAUACGUGGAAAUAGAUUCAUGUUAAUCUACAUGAGGAUCACCCAUGUAGAAGGCUAUAGCG [JR_Ex2_Sub075] (Eterna round: R97, puzzle: Exclusion 2)	80 nM		24.9 nM			
AAAACACAUGAGGAUCACCCAUGUGAGGAUAUGUCCAUAUUCGGCAAAUCGGAUAUGGACAGAAGGCACAUAAA [JR_Exclusion1_Sub014] (puzzle: Exclusion 1)				54.7 nM	48.9 nM	39.7 nM
AGUACCUGAGUACAAAGUAACAUGAGGAUCACCCAUGUAAAUGGGUGAGAACAAGCUCACCGUUCGUCUUAAAUAAA [JL turnoff v1 79] (Eterna round: R96, puzzle: Sensor v2, turn-off variant)	584 nM	38.8 nM	618 nM			
ACAUGAGGAUCACCCAUGUGACCACAAUGGCUGAUGUAACAACAGGAUAUUCGUGAAUAUCUAACGAAGAAGGGUUAUGACUGG [Deportation 63 - Jieux - Exclusion NG 3] (Eterna round: R96, puzzle: Exclusion NG 3)		51.4 nM				
AUUCAGCGAGGAUAUACAGGUUCUGGGUGAGGCUCGGCGAGACAUGAGGAUCACCCAUGUAGAAGGUGCUAGCC [Rezalaes] (puzzle: Exclusion 2)					277 nM	
AAACCACAUGAGGAUCACCCAUGUGAGGAUAUGAUACUAUGUACUUCGGUACAUAGUAUCAGAAGGCAUAUGAA [Ex1-3: 48] (puzzle: Exclusion 1)					24.4 nM	
AAAACUGCCCAUAACCGCAAGCUUUUUGCUUGUCUUACCACAUGAGGAUCACCCAUGUGACAUGGGCUCCUUAUAAA [Arixeerat] (puzzle: Sensor v3, turn-off variant 2)				14.1 nM	8.53 nM	12 nM
AAGUCGACGGUGAGGAUAUUAGUUGAACGACAGAUUAAGAAGGUACAUGAGGAUCACCCAUGUGGGUAGCGUUG [Brourd's EX4 #78] (Eterna round: R97, puzzle: Brourd's mod of Exclusion 4)	73.2 nM		80.9 nM			
GGACGGUUAGUUAGGAUAUGCUCUACCUCGGUAGAGCAGAAGGGACAUGAGGAUCACCCAUGUGAUAACUGUUC [Omei Ex4B B35] (Eterna round: R97, puzzle: Brourd's mod of Exclusion 4)	23.1 nM		20.5 nM			
AGAUAGUCAGGAUAUUAGUAAUAAAAGGAUAAUAAUAUUACUGAGAAGGGACAUGAGGAUCACCCAUGUAAUAU [JR_Ex4_Sub061] (Eterna round: R97, puzzle: Exclusion 4)	44.5 nM		27.5 nM			
AAAAAACAUGAGGAUCACCCAUGUGAGGAUAUGCUAAAAAAAUCCGCAUGAAAAAAUAGCAGAAGGCACAUAAA [PK2] (Eterna round: R96, puzzle: Exclusion 1)	93.5 nM	27.2 nM	36.2 nM			
AAGAACGUAGGAUAUACAUGAGGAUCACCCAUGUGAGGAAGGAGUAGGAAGCGUGGAAGUAGAAGGACGGAGAG [JR_Exclu3_Sub075] (puzzle: Exclusion 3)				27.9 nM	39.4 nM	29.3 nM
UUGUUAUAUGUAGGAUAUGCAUGUUAUUAUUAUGCAGAAGGACAUGAGGAUCACCCAUGUGUAUUAUUAUUAUAUAUUAUAUAU [Title] (Eterna round: R96, puzzle: Exclusion NG 1)	21.2 nM	14.1 nM	20.1 nM			
GGUUGACAUGAGGAUCACCCAUGUGAGGAUAUGCGAGAGAAAAAAGUGAGGAAGAAAAGUAGAAGGCGCUGACG [salish99-ex1_r3_001] (puzzle: Exclusion 1)				59.9 nM	49 nM	57.1 nM
AAUACACAUGAGGAUCACCCAUGUUAGGAUAUGAGCAGACAGACAGACAGACAGACGAUCAGAAGGAAUAGGAA [Excls1-V] (puzzle: Exclusion 1)				26.1 nM	25.4 nM	32.9 nM
GCUUUUGGGCAAGGAUAUCCUGCGCGGUUCUGGUUCGUGUCUGUCACAUGAGGAUCACCCAUGUGGGAGAAGGUGCCUGUGGUG [Design 71] (Eterna round: R96, puzzle: Exclusion NG 2)	38.1 nM	16.9 nM	23 nM			
GUCUUACAUGAGGAUCACCCAUGUGAGGAUAUGGAUUCGCUGGCCGUAGCCAGUGGAUCCAGAAGGCGCAUGAU [JL-ex1-4.04] (Eterna round: R97, puzzle: Exclusion 1)	50.9 nM		39.2 nM			

Sequence	apparent KD of MS2 coat protein (input ligand: FMN 200 uM)	apparent KD of MS2 coat protein [1]	apparent KD of MS2 coat protein (input ligand: none)	apparent KD of MS2 coat protein [2]	apparent KD of MS2 coat protein [3]	apparent KD of MS2 coat protein [4]
ACUCUUCCUGUUAGGAUAUGCAUCGGGCUUCCGCAGCAGAAGGAACAUGAGGAUCACCCAUGUCAAAUAAAAUC (Eterna round: R97, puzzle: Brourd's mod of Exclusion 4)	33.1 nM		17.4 nM			
CUUUUGUGAGGAUAUCAGUAGUAAAAAAAUAAAUUUACUACUGAGAAGGCACAUGAGGAUCACCCAUGUUCCUC [salish99_ex4_r3_025] (puzzle: Exclusion 4)					42.9 nM	
ACAAGCGUUUUGCUCGUAAAGUAGGAACGCGAGAGCGGCACAUGAGGAUCACCCAUGUAGAGGCAGUUGGUGGAGAU [JR_SV3TOV2_Sub030] (puzzle: Sensor v3, turn-off variant 2)				24.5 nM	24.2 nM	25.3 nM
AGUUGGCGAGGAUAUACAUGAGGAUCACCCAUGUGAGAGAAAAAAGUGAGGAAGAAAAGUAGAAGGCGCUGACG [salish99_ex3_r3_040] (puzzle: Exclusion 3)				61.2 nM	38.5 nM	40.1 nM
AAUAACAGAGGAUAUACUAUUUUAUGUGUUUGUUAUUUUAAACAUGAGGAUCACCCAUGUAGAAGGCUGAAUGA [JMF 56] (puzzle: Exclusion 2)					25 nM	
CGGUGUAAGUCAGGAUAUGAGCGCAACUGACGAUCAGAAGGGACACAUGAGGAUCACCCAUGUGAUUUCUCAAUAUUAUACAUC [Prohibition 90 - Jieux - Exclusion NG 1] (Eterna round: R96, puzzle: Exclusion NG 1)	30.7 nM	14.4 nM	23.1 nM			
GGCAUGUAAGGAUAUGCCACGCAGGCCUUUGGCCUGCGUAAGCAGAAGGUACAUGAGGAUCACCCAUGUGAUAA [jl-ex4-4.57 ViennaUCT mod] (Eterna round: R97, puzzle: Exclusion 4)	129 nM		727 nM			
AAUGAUUGACGAGGAUAUUGUGUUAGAUCACGACGAGAAGGCGUCUGUCACAUGAGGAUCACCCAUGUGAGCCUUGUGGAUAGA [Ex NG1 #77] (Eterna round: R96, puzzle: Exclusion NG 1)	618 nM	399 nM	378 nM			
AAUAAGUGAGGAUAUGGAAUAAUAAAUAAAAUAAUAAAUAACCAGAAGGCACAUGAGGAUCACCCAUGUAAUAA [JMF's solution 3] (puzzle: Exclusion 4)				27.4 nM	23.7 nM	21.4 nM
UUGUUAUGUGUAGGAUAUGCAUAUUAUUAUUAUGCAGAAGGACAUGAGGAUCACCCAUGUGUAUUAUUAUUAUAUAUUAUAUAU [Title] (Eterna round: R96, puzzle: Exclusion NG 1)		17.2 nM				
CAAAAGGGAGGAUAUACAUGAGGAUCACCCAUGUACGGUUCACGGGUAGGUGCGUAUAGUAGAAGGCCCGCAUA [Abiace] (Eterna round: R97, puzzle: Exclusion 3)	172 nM		83.4 nM			
CGCUGGACAGGAUAUGUUCUUGAGCACUUGAGGAUCACCCAAGUCAUCAAGAACUCAGGCACAGAAGGGUUUAUGG [salish99_ex5_r4_016] (Eterna round: R97, puzzle: Exclusion 5)	24.6 nM		13.4 nM			
GAUACACAUGAGGAUCACCCAUGUGAGGAUAUGCGUACGUUGUCCGUAGGCGACGUGCGCAGAAGGCGCAAAGG [Mat - Mod of JL D97] (puzzle: Exclusion 1)				85.1 nM	41.3 nM	86 nM
GCUCUGCGAGGAUAUACAUGAGGAUCACCCAUGUGCGAGUUACUUGUGAGGUCGGUUGGUAGAAGGCGCGGAGG [Mat - Exclusion 3 - Mod of JL D100] (puzzle: Exclusion 3)					77.5 nM	
AAAUUAGCAAGUAGGUCCGACAUGAGGAUCACCCAUGUUAUCUGAAAUAACGCAGCAUGAUUGUGAGCUCGUCUUAG [Sensor-V1 #6] (Eterna round: R97, puzzle: Sensor, turn-off variant 1)	80.8 nM		105 nM			
UAUAUAUAGUAAGGAUAUGUAAUUCUUUUAUAAACAGAAGGUACUGACAUGAGGAUCACCCAUGUUUUAGUGUGGGCAUGUAGA [JMF's solution 34] (Eterna round: R96, puzzle: Exclusion NG 1)		53.1 nM				
AGAUCACAUGAGGAUCACCCAUGUGAGGAUAUCGACUGAACAGCUUCGGCUGUUCAGUCGAGAAGGCACAAUUA [EX1 #41] (Eterna round: R97, puzzle: Exclusion 1)	45.1 nM		23.8 nM			
